The data set can be described thus: soluble on expression in E. coli; label from the status in PepcDB or PDB records.
Consider “MRGSHHHHHHGSELSKSSIVDKVELDHTTLYQGEMTSIKVSFSDKENQKIKPGDTITLTLPDALVGMTENDSSPRKINLNGLGEVFIYKDHVVATFNEKVESLHNVNGHFSFGIKTLITNSSQPNVIETDFGTATATQRLTIEGVTNTETGQIERDYPFFYKVGDLAGESNQVRWFLNVNLNKSDVTEDISIADRQGSGQQLNKESFTFDIVNDKETKYISLAEFEQQGYGKIDFVTDNDFNLRFYRDKARFTSFIVRYTSTITEAGQHQATFENSYDINYQLNNQDATNEKNTSQVKNVFVEGEASGNQNVEMPTEESLDIPLETIDEWEPKTPTSEQATETSEKTD”, for which the “soluble on expression in E. coli” value is “soluble”.

Turning to “MSSENAQLKKDLIKAVLSPLFPTATEGGENMDSNLKALLDAAIDQKVDESETVTAESILDPSLPARWIFARITPGTTISIVTDSGDMIGPVVFVAFDQVHGIVFVTQESSVTPAGQATTLIDVDKVESVTFFSLEHHHHHH”, the “soluble on expression in E. coli” value is “soluble”.

Take “MGSDKIHHHHHHKEKSTVAVLPFTVHSADNIDYVKQGISDMLTSRIAVEGKISVASKDLVQEAIKGRTTRDLTPEEMNALGKKLNVDYIVSGSITKIGNSLSIDGKLMDLAAARSTVGIFAQTQGLDEVIPKINDFSQRIVQHITGSTPSDFSSPAMELPAPSSAAAVADKPPQRSRESEIISGMRTSRKGTFTSIINPDFIDAARPLDRKGFWMSQKFPTEFRGMAIGDVNGDKLQEVVVIDRSNLYVYQRKGDDFKLLQKIPGKTHDNYLAVDVADINQNGIMEIFVTNMNRNTLASFVTEWQDGKYIQTAKDLRLFLRVIEPSIAAPQLLGQGFGLDNPFNTPIHEVIWDGKHYRAATRMKIPEGLSVYGLTLDDLGMGGSEKVISLDDYDYIRIYQQTEKPLSRLNVFGGSDELIWKSDEVFGGSNTYVEHAGSTVPGDEVRRTYINLRILTYDINKDGKKELILVKNLSAVGRVLKNVKLFTSSEVYNLEWDGLGLLENWKTRKINGYVADYQFKDIDNDGQNEIVLALVLSTGATLQNRSAFVAYKLSPQQ”: the “soluble on expression in E. coli” value is recorded as “not soluble”.

“GPGSMLSERACLHPGRALKCERFLAIFPQNVKEMLLQNPLFVQNSRVAERSIIRHNQFLLACYMTYLILRNDENAEGQALKYINFMPRNEGNFEQLISNMNGVLDGAAACQSAQAALSLQFGITQAEVRPLLQWSMAMIFSRMAPIDHRWTLQCAFKNTPFAPAFDIRGPDDDANMVKEPIAFLCPVIDMCNHSDHENVALMVPQRTDSSHESVICLRSLRDIDRGEELTMTYGGSPTELRVIWGMQRVL”: the “soluble on expression in E. coli” value is “not soluble”.

For “MSLKQNQNSDESIDENMSVDNTETCMVDTVKATAIFWIDKAEAKHCKDSGLRTIKAKVFIHENGKVDFLSFTKKQSSGVEKYILHHLDKFQISKRMLEGGYIQTGEQFVQLRCMREKLQAMQEGHHHHHH”, the “soluble on expression in E. coli” value was “soluble”.

Take “MDPLSAASKIAGSGLEVQSTRLRIVSENIANARSTGDTPGADPYRRKTVTFGSELDHVSGVERVKVKKLGVDRGDFVHEYDPGNPAADTNGMVKMPNVNVLIEMADMREANRSYDANLQVIRQTRDLVASTIDLLKASQ”: the “soluble on expression in E. coli” value is listed as “not soluble”.

Take “MEDEIKSFEKDRNLIIEDSKNSKNNIVDVQKLIEALKDEKNAKNIVVDFTEYNPLHNGHKYCMDFGKSEGLFISVIPGPLERSGRGIPYLVNRHIRAEMALLAGADLVVEGPPMGIMGSGQYMQCLIKIFSALNGDIIPRGYIEEETMERVINSINNGNHIKIKPYNISCIETREKLGEKLEIDNYVIASMSYTIYKLKENFPKWNPKFKFIERIEGISGTKIREGVFNNNFESIKHMLPITTIDVFKNFGDNLSEIILKRNEEMVLDTVNNFDLNKYLPENISEKLNEKEYYESIEEIKEYIPRGFSKNNIERTISKLEARIEKETISKYIENYPANLRILNGINNHE”: the “soluble on expression in E. coli” value is “not soluble”.

As to “MAMSFEWPWQYRFPPFFTLQPNVDTRQKQLAAWCSLVLSFCRLHKQSSMTVMEAQESPLFNNVKLQRKLPVESIQIVLEELRKKGNLEWLDKSKSSFLIMWRRPEEWGKLIYQWVSRSGQNNSVFTLYELTNGEDTEDEEFHGLDEATLLRALQALQQEHKAEIITVSDGRGVKFF”, the “soluble on expression in E. coli” value is reported as “soluble”.

In the case of “MSLEGEVEKTQAKGSIILATTTSTSDSGLLDYLLPEFTKDTGIEAKVVAVGTGQALQMGKDGEADVLLVHSKAAEEEFVAAGDGLERKDVMYNDFILVGPANDPLKLKQELPNDIVGALKKISEQKFKFISRGDDSGTHKKELALWTEVGITPEGDYYVSAGRGMGDVLKMADEMQAYTIADRGTYLSMKADLGLDIIVEKDTNLFNQYGVIPVNPDKNENINAEGAKAFEEWILSEKAQSLIGEYGKEKYGAPLFTPNAAKEGHHHHHH”, the “soluble on expression in E. coli” value was “soluble”.

“TALSVLDLVMIGEGKTFADAIEESRQLARHVEQQHYSRYWIAEHHDMPGIGSAATSLVINEIANATRHIRVGAGGIMLPNHAPLVVAEQFGTLNTLHPGRIDLGLGRAPGTSGPTVRALRGAAPERDFGQDIAELRDYLADNGKRRVRGVPGAHDVPVWILGSSLFGADLAAKLGLPYAFASHFAPRYLLQAIAHYRANFQPSAQLAKPYVMVGMNLFAAASDAEADYLASSHRKWMLDLHVGRFGLLPKPQEGYLERLPDHERAVLDQVMACSVAGGPERVREGLRSLIEQTGADELMIDCRIHDPLARQRSHAYAAQ”: the “soluble on expression in E. coli” value is “not soluble”.

“MSLAVERLFGTNGIRGIPNDDMSPDFAMSVGKAIGTYVSGEIAFGTDTRLTGDMIKNAVIAGILSTGISVIDLGVLPTPAIQYYSKKHGIYAVVITASHNPPQYNGIKVIDKDGTELERPGEEKIEEIFYSKAFRVVKWENIGRIRQVSDAIDIYINGVISNVDSDNIKSHAFKVLADAGNGAAYYSTPKLLEKLGCSITTLNANPDGRFTARNAEPVPENLVNLISLMKSGRFDLGIAHDGDADRAVFIDEKGNFIDGDRMLALITKYIAKAGDVVVTPVSSSDTIADICNAIGAKLIRTKVGAPIVARAMIDNGATIGGEENGGVIYGKHQYCRDGAMTVSLVLNLMASTNKKLSELISELPVYYLIKKKVERRVDWPSLARELKKGERVDETDGIKILKDDGWILIRPSGTEKILRIYAHSSDFELANKYCEQYIRKVNDIQDKLSEGHHHHHH”: the “soluble on expression in E. coli” value is “not soluble”.

Take “MGSDKIHHHHHHMPKMGELTLTSVDEFDFRLLIKALGKGEKGSRALTFDEACLLLEGFAKGKATRAQMASAMMLMRVRGETTEEISGMVAGLRRTVDKDWHSLEVDIDWPVYAGKREQLPWLLLVAKLLAKQGVRVMLHGDSQALPHRRHVESCLASLNIACCTTPQMAKAALHSDNIVYVCAGDLAPVLDECRQLHQELGLRSLIQTAARCMNPTNAPISLRSYFHPGLDTVHQGICEILFEKSEYHAGSVAIFKGLQGETECNPRVATTITVVNGQTDNIAVSSLSIPTLLEGFSGAKVGQAELSSDILALLWREQEPFSADALTTLMSRTMIEQALSSMTATLAAVLLLLSRKSAMTEPNTTAIITTEQAVNLSQQCWTNRFNSTDCPLKQWRNRELLCAV”: the “soluble on expression in E. coli” value is given as “not soluble”.

Regarding “GIDPFTKMGGDRRPITILTSDLRGFTSTSEGLNPEEVVKVLNIYFGKMADVITHHGGTIDEFMGDGILVLFGAPTSQQDDALRAVACGVEMQLALREVNQQVTGLGLQPLEMGIGINTGEVVVGNIGSEKRTKYGVVGAQVNLTYRIESYTTGGQIFISSTTLEAAGDRVHVNGNRTVQPKGVKDPVVIWDVAGVGEPYNLSLAVEEQ”, the “soluble on expression in E. coli” value was “soluble”.

For the sequence “GPGSMSGSTQRAEQQRRIQQLHERLELYNIADRHTDPTSNSAGGVGFASAGGLETGGGDKAPTTKPSRAAPMSGSPNLKPTSAPTSNAFFFTSSLPRRAADAGAPSSTLGLQQGNGSGSRATAAPSATEIAEVSRASPTPQQQPQVQMPPPAPAPQLARNLAQEFFGSAASPTHASPTRAASRSSAMTSGAAASPVAPERPSVTAAYPESATEATAAATAAKAGSPPLAANVFDYYEDFKSDGSEGDEYEVEEVEECMEDEEDYVGDGEDTDEHARGKASLTLEDVLRRLHRACSGSVDHAAAASPLEQAMAAASASSPLARDPSLATATPAAAAATRVTLTAAAASPIGTTYPFLQQATEVYRQRHLYKATQEHQQHHSPFNTGYAWSTDEETSVTDTSTSEPTEGLGDASESRSASVSSSASAASKGHLTAANAAAAVQNSGLLAAALQPLADTAIATPTASDRASAEKVLPSSALCFDQLETAYRRLLILQQGAKYVSELAGPECFPRPLPRQEEARALAEQRDMVVKRDTEMRAAPPAGSSLEDLRQRESAAIERTLGLLREKFDAAMKSLKPVADREAAIEGKRRTLKQRELDIAKQREARLIVEREVAAAEKRLMERSEQLRKREEDYSARLQQHDHQQKAAQEQIGEVEQLSKQVSSWLAILEERDRRLARKEKRLQRVQADLLKRTEDIIVWKRATQRIKQIPPPPSPPRIS”, the “soluble on expression in E. coli” value is given as “not soluble”.

As to “MANFIIELSADESFNIVINDLKPIETYRVEMFLSDYYCINAPMRLAHDVLWKSTATFVSDTNGIINISQTPSCSGSYEGISTMGLFFNAKPLTNKRKKLPNSISKIPLLDHFFVGIKIMQGNTVIAERTFTRHYMSSQISHQDIYGKHFQGRLFYDKKAIKTPSIDYCER”, the “soluble on expression in E. coli” value is “not soluble”.

In the case of “MQDGMYQRFLRQHVHPEETGGSDRYCNLMMQRRKMTLYHCKRFNTFIHEDIWNIRSICSTTNIQCKNGKMNCHEGVVKVTDCRDTGSSRAPNCRYRAIASTRRVVIACEGNPQVPVHFDG”, the “soluble on expression in E. coli” value is given as “soluble”.

In the case of “MNKILIAAASSGTGKTTVTLGIMHALKKRGLRVQPFKVGPDYIDTNYHQAITGVASINLDSFLIDDDAMLAALFEKHGQSADISVIEGVMGLFDGLGIDRDNSSTSFIAKCTKTPVILVVDGKAISTSAAAIVDGFNRFDPELTIAGVIINRVASENHFSLIKGAIERYTDVPVLGYLPKNAAVALPERHLGLVPKEEMTELETKWEVLGDLIAEHVDLDRLLAISKTGAKLTVHPPEIQVPDFSGMRVAYALDAAFHFYYQDNLDFIRSTGATLIPFSPLEEREVPDADFIYIGGGFPEVFAERLAKNKSMHESILAAHEQGKPIYAECGGLMYLGSSLEMEAESYEMVGVFDGVSKMTTRLRKFGYCIAEPLEDTLLGKKGTAIRGHEFHHSVFETTEPTRMKLTKKRDGETVKEWHGGYQKGNTFASYLHIHFYQNLAMITHMFGAIERLEHHHHHH”, the “soluble on expression in E. coli” value was “soluble”.

Take “MGSDKIHHHHHHMFVRVDISSLPLGKRMAQDIYDFDGHLLISKGIVVQESHLQQLRQRGYEYVYIQEEDEVNENSLNQGIAYLTDKQLPKAFSASVEGMRQMMDKVSSRHMIKLGEVEECIDLVYDHVLQTYNVLKHLQDLRNKDEYTLQHSVSVGILSIKIGQSLGLDADKLKNLGIAGLLHDIGKSMISLDIINKPGPLDDKEFKEIKKHPVYGYQIVNEIKLEDQDIPQAVLQHHEHQDGNGYPLGIRGDRINSFARIIAVADVFDALTSDRAYRPRMSLLQAVDIIIKSSCGQLDPLASRRLLSYVLDITTGEKVILSTGEEATVILKNEVDPARPLVRIGDNFLDLKTNRDVFIKDFAR”: the “soluble on expression in E. coli” value is “not soluble”.

For “MSRSRSAAASSSQKPDDMDLMSPDGSASSPSAPNTPATNSGGFSSDRKKATHLRCERQRREAINSGYSDLKDLIPQTTTSLGCKTTNAAILFRACDFMSQLKTDISDADKQLAQLNAQAAALEMIASEYEQMASSVPDAGQSTIQVKMLQLLLDDCFTSFSSQVDFTTYATITRTLLSWVESLAPNAEPFKSTAGKMVTMPFTSP”, the “soluble on expression in E. coli” value is reported as “not soluble”.

In the case of “MTRAILFDLDGTLVDTRAASWQLFSETNLAFALGIDSREAFFRAFEGNFFESLAKLCPDPQRAAAVKAHFMELLRTRYHPALIPGMVDVVRALAPHSTLAVISTNGIEAIRRILVGADLANCFSHVFSGDVEPRKAVSIRRFLGDHRYAVHRACSPAYHDGEASHASLQAQDVVLVTDTVGDVREAREAGIRAIGVTWGMHSERQLLDAGAERVALWPQELVAWLRDADAPATSCGCSSGSADSCALPPAPAPAVRAAAAPPTGDPVREVARHRRERQLHTRLQAAAATAPAAPGASMASAASGPSARTELMSSLQRILREGDH”, the “soluble on expression in E. coli” value is “not soluble”.
